Test results reported in the DeepSol protein solubility set.

assay: soluble on expression in E. coli; label from the status in PepcDB or PDB records

Sequence	soluble on expression in E. coli
GPGSMMNLAPDTITIGAQRNTELLLLEYLRSTNPHIHALWQRHPNKDNDASSSSAASSPSKDTRGASGSDVGDANASSSSAASALRESFDYTEPRLYRAAHVHFLMENLSVAPQGFSSLYPSRPWIVYWALQAADVLNSMESEVLHRTPPSAIVAFLHSCLSVDHTCQAEVNNRLAAAATSARGAPEGKDPHVTGTPLESSTTSVTLERDSADATSATLMPPVEDAAEVAEGPSRPVMGFAGGATHQEPHIASSYAACCALAMLSWYGDGAPLRQLPRAAIKRWLLTLRNEDGSFRVHGGGESDIRASYCAAVITTLLGLDDPTTFDGEAGRCEFVDDVRDVPVLTLQTARFVAACQTHEGGFTCSPTASEAHGAYTQCGLAALLLMKQPHMVHQASLRRWLAARQLNYEGGFNGRTNKLVDSCYSHWIGASHVLLRTVEAYTKCFTEVPTTHSRNGDGTGGCEDGYREDVDCTPSARCLRAREVVLLDHAQLLDAKMIHASADDAWDRAESAHLTRLGVVDQFLGADDAVLRSAEEKRTAVTALYERLLESRLAAVRSCDGNGDAAAGDVQGSLEAWRARQAFLYADVGDFYFNQRKLQDYVLRCCQDSEIGGLMDKPQTAHDGYHTCYSLSGLSAAQNLQYRTHVTAADAAYPSTYLERAFARSYLPGRESGSTSGNEEGSCGVVLGLPNTSAAAESMLLRTTSPIFNIHQSRVLSALRAWSVKAFV	not soluble
MGSSHHHHHHGGTGENLYFQGGSGLLMRSSSPAATVQATHQRVQSAQERHVRREYASDVNTPRALSVRSSRGGSFAFAPQVQEKYNTMNILVLGAPQVGKSLFINSYRAAITNTTRWPAAPVGISGFYGTTTVAPFPNHARQPTWLCIDTPGSLYTEKHAVLLEKLTEGMPWKTKLKGPNALTLRQIKDISPIAANKAHQCIIVVPATDLIEDDGLINTLLWRNRYRPAGGVADIIFYLKGLISSLRTLMDDASPFVVVTKMDKVGGARNSSACAALVSILGQCVPVNHVYFTAAVENRALLATGRTMVLESSTKQNLVRLHEDICLAVQWRNQVDAM	not soluble
VGKTVKREYCHEENDEELRKAVHDACYDKSYAIAASGNRNKHERQDAFDAIRDEFKAQFSEEELEEKGALIDRYYHDVEKEAMRRCILDEGKRLDGRKTTEIRP	not soluble
MMNNVKYLSFALILAFSACKSGSASSQEPSEKQDTVKIFNLPQIPVVLNTVEQRTDYMVKHYWDRFDFSDTTYINQAEVPEQAWVDYCDLLEHVPLPVAQTAMKETFNRAEKNRKMLHFFEELADKYLYDPNSPMRNEEFYIPVLEALIASPALDETAKIRPQARLELAQKNRLGTKALNFTYTLDSGVKGTLYQFPAEYTLLFINNPGCHACAEMIEGLKASPVINGFTAAKKLKVLSIYPDEELDEWKKHRNDFAKEWTNGYDKELVIKNKNLYDLRAIPTLYLLDKNKTVLLKDATLQKVEQYLAERG	not soluble
MSLQADEQSNGKIKFSKFKVNIKNKDNKSNWTDMGTLVVEKVEYGIATGLNNDKQGGGHSSTFFSLEEEEVNNFVKAMTEGGSFKTSLYYGYKYEQSDEKGIQNKEIITKIEDINCSKHITFSGDKIAKNEGHHHHHH	not soluble
MSFMDKVKDTANSAYESVENTAVGAKDGVVGAFNTVGEKIGGAYDSTKQYASDKVSAAGDYASEAGKKVGDAEDSMIQGAYDAKDSAKESASNAGNKISNAFTSLKDSITGDNAHKTGEALNDNYESVKESASEAADRLKEPAQNTADNAKDLANQTGEEMSDAFESVKQLTSDTAENAKENAHDAADTAKSYKDKAGEKASGILDSFKAHASDAKDSVENKASDAYNSAKDKAGDAWDSTKDAAGDAKDKTKSFTEKVGDKISGAYDSVKEKASDVADSFKAHSTDSKDNVENKAADAYNTAKDKASDAWDKTKDKAGEAKDKMGDAWDTTKDKAGDAWDTTKDKAGDGKGKAGDAWDTTKDKASDAWDTTKDKAGEAKDKMGEAWDHTKDKAGEAKDKASDAADDAQGKSKSMTEKIGDSISGAWESTKDTAVSAKDKTAEAAGKVGDSISGAYDTVKEKASDIADSFKAHSTDSKDNVENKAADAYNSAKDKASDAWDKTKDKAGDAKDKAADAWDTTKDKAGDAWDSTKDHAADAKDKASDAAGDAKDKSKSLTEKAGDAISGAYDSVKEKASDIADSFKAHSTNSKDNVENKASDAYNSAKDKASDAWDKTKDKAGEAKDKAGDAWDNTKDKAGNAWDSTKDKASDAWDTTKDKASDAKESAGDAADSAKDKSKSITETIGDKISGAYDSVKEKASDVADSFKAHSSDAQDTVEVSHHKYFNVFSSFE	soluble
MGSDKIHHHHHHMEHLPEQYRQLFPTLQTHTMLASCSQSALAEPVSRAIQDYYDSLLYKGTNWKEAIEKTEFARNEFAKLIGAEPDEVAIVPSVSDALVSVASSLTAFGKKHVVYTDMDFPAVPHVWQAHSDYTVSVIPSIDGVLPLEQYETHISDETVLTCVPHVHYRDGYVQDIKAIAEISQRKGSLLFVDAYQSAGHIPIDVKEWGVDMLAAGTRKYLLGIPGVAFLYVRKELADALKPKASAWFGRESGFDGAYAKVARRFQTGTPAFISVYAAAAALSLLNHIGVSHIRDHVKTICADAVQYAAEKGLQLAAAQGGIQPGMVAIRDERASETAGLLKKKKVICAPRENVIRLAPHFYNTKEEMRHAIDEIAAKTIHK	not soluble
MGSDKIHHHHHHMTLDNHHCVQLVPLFEKLAEQDLTKVEKIVEHKKIKKGEIIISPDKEPLLVIVAQGALKISQLSQSGKEQLLRIIEAGDYEGEGALLGVTNGQLYGQAMIDSTICFLRQSDFETLLTTYPSLSLQLLKLNAKKYLAAEHQAGFLALDDVEARLAHYFLNLSATSDSIYFEIPMKLKELANYIGTSPETISRKIKVFEENKIISRQGRMIKLLDKEKLEDDFA	not soluble
MPKILWKSLHLCFPSNLTKCYSSPCIPPSSADPDGIIQPNRPSIVLLNNFNLLYHNDNHHHPHRVIDLPSSSTTTTPAATSSSSTSSYESDISPDVSAAFASRRFFFSSPGRSNAITDSPEPRSREFSDNYDDATITSTKKKKKKVYDNSVTTTTTRLISGGTAVTQHVDSPDPLTDFRRSMQEMIDAAIDAGELSRDPNDGYDFLDELLLTYLSLNPADTHKFVIRAFSDILVSLLSEERRIC	soluble
MSLELKKFFVLVLLLGSVCPAFCGGDTLHCRFYFPVGSAIPDLSYRDNGPRLDSFLSSIRSLQERAVLRRVRLRSGASPEGNSMLNRRLSDERLVSLRAVMRERLSVPDSVLVCLSSGEDWEGLSVLVGESDMPCRDEVLRILRDTPVWVVRGGKVVDSRKRQLMNLRGGSVWRYMAEHFFPELRNCTVVECEFGPVISGNDREIAVYQKEAEARDTVILRDTVERTVVIRDTVQVPASVGNALKPFYMGLKTNLLYDALLVPNLGVEFYLGRGWSFGGNWMYAWWKSDRHHNYWRIYGGELALRKYFGRRAAEKPLAGHHLGLYGQLFTYDFEVGGTGYMGGRPGGTLWEKMNYAVGLEYGYSLPIARRLNLDFVIGVGYWGGEYHKYDPVDGCYVWKETLQRHWFGPTKAEVSLVWLLGRGNHNEKGGKEGHHHHHH	not soluble
MGSDKIHHHHHHMSNSSRLSVASNSQDATSPLRLLVLSNGHGEDVIAVRILQELQRQSNPPEIFALPLVGEGRAYQQLEIPLIGSVRTMPSGGFIYMDGRQLARDVRGGLLQLTLSQIKAVRRWVSSQKKLGNKRAILAVGDIVPLLFATFSGANYAFVGTAKSEYYVRDEAGLLPRKSKDARWENFSGSVYHPWERWLMSRRRCKAVFPRDVLTTETLKQWPIPAFNLGNPMMDGLQPTFSRQQFYSRDSHQQETVRPLMVTLLPGSRPPEAYTNWEKIMIAVSALMASFQERDSVFYTSGTVVFLGAIAPGLDSNILSQSVQSQGWRAESVCPIQLPDPNILTFKQRNAYLLLTQQSYNDCLHLGDFAIAMAGTATEQFIGLGKPAIAIPGNGPQYNPAFAEAQSRHLGSSLILVEQPAEVAEIVQSLFKDPDILQIIAENGLRRMGKPGAALRIAECLQERLS	not soluble
MGSDKIHHHHHHLDVDTGKLQSLAASRYGARGARAVDDWLQLLRNDTSASEANQLARVNAFWNQRVLSGEDTHIWGRADYWATPLETLGKGAGDCEDYVIGKYFSLISLGVPTEKLRFIYVRARIGGPYSNQQIAHMVLGYYPTPNAVPLVLDSLISTIMPANERRDLTPVFSFNADGVYVDGKQASPVDRLSRWRDLLLRMEREGLRP	not soluble
MSLKVLIIGGVAAGTKTAAKIKREMGDNCSVTILNKGDDISYAGCGLPYYVGKIIEDKSSLIVNTPESFSKLTGAEVRCGVEVTSIDRNAKQVTLKTLSTGEKENLSYDKLVIATGADPIKPPIPGIDLPGVFFMRTPNDAIKLRDSIENGIKRAVVIGGGFIGLEIAENLSAMGIRVSVVDMAEHVMPGFDTDFAEYVENHMADKGIMIFTGDQVVGIEGENKVEKLRTKNRAIKTDLVVMSVGIRPNTGFLKDTGLEFAPNNTIIADEYMLTNDKDIYVVGDCAFVKNSLTNKPTWSPMGSSANHEGRICAQNISGKSKTYNGVLGTTVVKLPELNAGKTGLSKEIAEKEGYNVCSVTIATDDKAHYYPGASNFIIRMVAEKNTRKLLGVQVMGPGAVDKIVDIAATAITLGADLYSLESMDLAYAPPFSTAIHPFVVAVNVLQNKLNGELDSVLLDEIEDFDSWTKLDVSKAPSIPSLRYIPVGEINGEIEGLAKDEKILLICAKGKNSYMAQNRLRRFGYTNTKVLEGGILFYPNLKVMEEGHHHHHH	soluble
MGSDKIHHHHHHMATETRVASLPSIDAAALAAIEGCALVDLLLPDTNGVLRGKRVTREALDKVYRDGVCLPMSLIATDITGNTVEETGLGYAIGDADRICRPIAGSLRPVPWAPQPMAQLLLAMHTPNGALFEVAPRAVLQRVVQGFAALGLTPVIAVELEFYLFDAMADAQGRPQTPRDAHTGERNTSTQVYALQDLDDHRSFTDAVTAACRQQGIPADTAVAEYAPGQFEINLQHRADAVAACDEALLLKRTIKAIAQQQHLLASFMAKPFAGQAGSGLHVHVSLLDAAGHNVLHGTADAPAAALRHAIAGLQRHADASLLLFAPHANSYRRFVPNAFVPLDASWGFNNRTVALRIPHSDAHNTRIEHRIAGADANPYLVAAAVLAAMLDGLQHPGDPTAPVQGNAYAQATFTPRTWQGAVDAFLRSDFIATQLGTQFQHVFGQQKQRELLDYQALVPDLDYARYLRTV	not soluble
MGSDKIHHHHHHMQSALWVSKTGLAAQDTKMTTIANNLANVNTTGFKRDRVAFNDLFYQVQRQPGGQVDELNQLPSGLQLGTGTRVAGTQKVFTTGDVHNTSQQLDLAIEGNGFFQVEEPNGDLAYTRDGQFYRSSEGMMVTSQGLPLVPNIVIPEDSTNITIATDGIVMATIAGDAEPQELGQITLINFTNPAGLEARGNNLYRETAASGVAVEGVAGDQALGGLRQGSLEGSNVNVVEEMVEMISTQRAYEMNAKVVSASDDMLKFLNQSV	not soluble
MNTKLTKIISGLFVATAAFQTASAGNITDIKVSSLPNKQKIVKVSFDKEIVNPTGFVTSSPARIALDFEQTGISMDQQVLEYADPLLSKISAAQNSSRARLVLNLNKPGQYNTEVRGNKVWIFINESDDTVSAPARPAVKAAPAAPAKQQAAAPFTESVVSVSAPFSPAKQQAAASAKQTNIDFRKDGKNAGIIELAALGFAGQPDISQQHDHIIVTLKNHTLPTALQRSLDVADFKTPVQKVTLKRLNNDTQLIITTTGNWELVNKSAAPGYFTFQVLPKKQNLESGGVNNAPKTFTGRKISLDFQDVEIRTILQILAKESGMNIVASDSVSGKMTLSLKDVPWDQALDLVMQARNLDMRQQGNIVNIAPRDELLAKDKAFLQAEKDIADLGALYSQNFQLKYKNVEEFRSILRLDNADTTGNRNTLVSGRGSVLIDPATNTLIVTDTRSVIEKFRKLIDELDVPAQQVMIEARIVEAADGFSRDLGVKFGATGRKKLKNETSAFGWGVNSGFGGGDKWEAQTKINLPVAAAANSISLVRAISSGALNLELSASESLSKTKTLANPRVLTQNRKEAKIESGYEIPFTVTTASGGGNSTNTELKKAVLGLTVTPNITPDGQIIMTVKINKDSPAQCASGNNTILCISTKSLNTQAMVENGGTLIVGGIYEENNGNTLTKVPLLGDIPVIGNLFKTRGKKTDRRELLIFITPRIIDTAGNSLRY	not soluble
